Test results taken from patent publication US20110190385A1 (UNIVERSITY OF CENTRAL FLORIDA RESEARCH FOUNDATION, published 2011).

Target: HIV-1 gp41 (Env of HIV-1 BaL) (HIV-1 BaL)
Assay: cell-based or functional assay

B1: RC-101 (single lysine congener of retrocyclin) (peptide)
peptide: cyclo(RCICGRGICRCICGKGIC)
modifications: disulfide (positions not given here); also: three disulfide bridges, pairing not given here
For B1, the “IC50 of inhibition of HIV-1 BaL entry in TZM-bl cells (luciferase)” value was 2 µg/mL.
